# Target: T1, PKR fused to the GAL4 DNA-binding domain (mammalian two-hybrid bait) (UniProt P19525 1-551)
# T1 construct: also called GAL4-DBD PKR; source: mammalian two-hybrid fusion, transfected cells (COS-1 by the methods, HeLa by the legends)
# Experiment: two-hybrid; mammalian two-hybrid, PKR as GAL4-DBD fusion (bait), PACT proteins as VP16-AD fusions (preys), pG5Luc firefly luciferase reporter normalised to pRL-Null; cells untreated, no stress
# Settings: partners not purified
# T1 sequence (P19525 whole entry, the tested form may be a part): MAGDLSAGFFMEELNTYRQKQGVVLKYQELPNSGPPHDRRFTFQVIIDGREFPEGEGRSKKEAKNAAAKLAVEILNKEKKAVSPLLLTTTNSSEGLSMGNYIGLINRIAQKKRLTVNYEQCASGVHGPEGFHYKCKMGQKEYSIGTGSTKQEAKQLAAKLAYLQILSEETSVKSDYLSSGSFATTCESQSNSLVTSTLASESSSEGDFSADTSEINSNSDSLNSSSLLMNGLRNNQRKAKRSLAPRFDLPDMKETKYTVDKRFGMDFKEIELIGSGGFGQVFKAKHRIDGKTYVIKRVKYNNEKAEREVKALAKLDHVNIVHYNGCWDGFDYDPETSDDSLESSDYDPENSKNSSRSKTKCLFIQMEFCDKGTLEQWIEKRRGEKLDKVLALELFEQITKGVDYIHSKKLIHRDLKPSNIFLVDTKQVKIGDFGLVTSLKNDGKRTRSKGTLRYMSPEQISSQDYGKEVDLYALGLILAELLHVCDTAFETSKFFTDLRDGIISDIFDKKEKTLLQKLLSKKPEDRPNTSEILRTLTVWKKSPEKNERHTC
row,Binder,fold interaction against wt PACT-PKR (two-hybrid luciferase)
1,"DD (S246D, S287D) phosphomimic mutant PACT fused to the VP16 activation domain (mammalian two-hybrid prey) (natural protein, UniProt O75569 1-313, looked up, PACT ORF with serines 246 and 287 replaced by aspartic acids, in pVP16AASV19N; also called DD PACT; DD mutant; source: mammalian two-hybrid fusion, transfected cells (COS-1 by the methods, HeLa by the legends)) MSQSRHRAEAPPLEREDSGTFSLGKMITAKPGKTPIQVLHEYGMKTKNIPVYECERSDVQIHVPTFTFRVTVGDITCTGEGTSKKLAKHRAAEAAINILKANASICFAVPDPLMPDPSKQPKNQLNPIGSLQELAIHHGWRLPEYTLSQEGGPAHKREYTTICRLESFMETGKGASKKQAKRNAAEKFLAKFSNISPENHISLTNVVGHSLGCTWHSLRNSPGEKINLLKRSLLSIPNTDYIQLLDEIAKEQGFNITYLDIDELSANGQYQCLAELSTSPITVCHGDGISCGNAQSDAAHNALQYLKIIAERK",> 2 fold
2,"P222L PACT fused to the VP16 activation domain (mammalian two-hybrid prey) (natural protein, UniProt O75569 1-313, looked up, PACT ORF with the DYT-PRKRA patient mutation P222L, in pVP16AASV19N; Plasmid described in Vaughn et al., 2015; Burnett et al., 2020; also called P222L mutant; source: mammalian two-hybrid fusion, transfected cells (COS-1 by the methods, HeLa by the legends)) MSQSRHRAEAPPLEREDSGTFSLGKMITAKPGKTPIQVLHEYGMKTKNIPVYECERSDVQIHVPTFTFRVTVGDITCTGEGTSKKLAKHRAAEAAINILKANASICFAVPDPLMPDPSKQPKNQLNPIGSLQELAIHHGWRLPEYTLSQEGGPAHKREYTTICRLESFMETGKGASKKQAKRNAAEKFLAKFSNISPENHISLTNVVGHSLGCTWHSLRNSLGEKINLLKRSLLSIPNTDYIQLLSEIAKEQGFNITYLDIDELSANGQYQCLAELSTSPITVCHGSGISCGNAQSDAAHNALQYLKIIAERK",~3 fold

# — publication PMC9974672, “Luteolin protects DYT-PRKRA cells from apoptosis by suppressing PKR activation” (Frontiers in Pharmacology, 2023)
